The values that follow come from PMC7933254.

For the assay, the target named is RhoA (blot label: Myc (RhoA); legend: RhoA-GFP). The assay can be described thus: co-immunoprecipitation (IP: Myc (RhoA)) with densitometry. The note with it: MN-1 cells, mean ± SEM, parent: est. 1.0, read off a plot.

In the case of “TRPV4-FLAG (wild type), expressed in MN-1 cells (from UniProt Q9HBA0) R237L”, the ratio to parent (R237L TRPV4-FLAG alone, no TRPV4-GFP co-expressed (lane 4), n = 5) is 0.05 and the ratio to parent (R237L TRPV4-FLAG co-expressed with WT TRPV4-GFP (lane 5), n = 4) was 0.04.
